# According to the RNAGym collection of RNA variant scans (doi:10.1021/acssynbio.7b00057):
# B1: Pistol ribozyme (parent)
# chain: GGGUCGUUGUUCCAUAAUCGCGUGGAUAUGGCACGCAAGUUUCUACCGGGCACCGUAAAUGUCCGACUGGAGCCGUUCGGGCGGCUAUAAACAGACCUCAGGCCCGAAGCGUGGCGGCACCUGCCGCCGGUGGUAAAAAAGAUCGGAAGAGCACACGUCU
# Variants of: B1
# Test: aptazyme ON/OFF ratio, guanine; higher = stronger switching; co-transcriptional cleavage with and without guanine
row,Variant,aptazyme ON/OFF ratio
1,GGGUCGCUGGGAAAUAAUCGCGUGGAUAUGGCACGCAAGUUUCUACCGGGCACCGUAAAUGUCCGACUGGAGCCGUUCGGGCGGCUAUAAACAGACCUCAGGCCCGAAGCGUGGCGGCACCUGCCGCCGGUGGUAAAAAAGAUCGGAAGAGCACACGUCU [U7C U10G U11G C12A C13A],1.13
2,GGGUCGCUGGGAUAUAAUCGCGUGGAUAUGGCACGCAAGUUUCUACCGGGCACCGUAAAUGUCCGACUGGAGCCGUUCGGGCGGCUAUAAACAGACCUCAGGCCCGAAGCGUGGCGGCACCUGCCGCCGGUGGUAAAAAAGAUCGGAAGAGCACACGUCU [U7C U10G U11G C12A C13U],1.26
3,GGGUCGCUGGGAGAUAAUCGCGUGGAUAUGGCACGCAAGUUUCUACCGGGCACCGUAAAUGUCCGACUGGAGCCGUUCGGGCGGCUAUAAACAGACCUCAGGCCCGAAGCGUGGCGGCACCUGCCGCCGGUGGUAAAAAAGAUCGGAAGAGCACACGUCU [U7C U10G U11G C12A C13G],1.16
4,GGGUCGCUGUACCAUAAUCGCGUGGAUAUGGCACGCAAGUUUCUACCGGGCACCGUAAAUGUCCGACUGGAGCCGUUCGGGCGGCUAUAAACAGACCUCAGGCCCGAAGCGUGGCGGCACCUGCCGCCGGUGGUAAAAAAGAUCGGAAGAGCACACGUCU [U7C U11A],1.38
5,GGGUCGCUGGCGUAUAAUCGCGUGGAUAUGGCACGCAAGUUUCUACCGGGCACCGUAAAUGUCCGACUGGAGCCGUUCGGGCGGCUAUAAACAGACCUCAGGCCCGAAGCGUGGCGGCACCUGCCGCCGGUGGUAAAAAAGAUCGGAAGAGCACACGUCU [U7C U10G U11C C12G C13U],1.28
6,GGGUCGCUGGCGAAUAAUCGCGUGGAUAUGGCACGCAAGUUUCUACCGGGCACCGUAAAUGUCCGACUGGAGCCGUUCGGGCGGCUAUAAACAGACCUCAGGCCCGAAGCGUGGCGGCACCUGCCGCCGGUGGUAAAAAAGAUCGGAAGAGCACACGUCU [U7C U10G U11C C12G C13A],1.22
7,GGGUCGCUGGCGGAUAAUCGCGUGGAUAUGGCACGCAAGUUUCUACCGGGCACCGUAAAUGUCCGACUGGAGCCGUUCGGGCGGCUAUAAACAGACCUCAGGCCCGAAGCGUGGCGGCACCUGCCGCCGGUGGUAAAAAAGAUCGGAAGAGCACACGUCU [U7C U10G U11C C12G C13G],1.16
8,GGGUCGCUGGGCCAUAAUCGCGUGGAUAUGGCACGCAAGUUUCUACCGGGCACCGUAAAUGUCCGACUGGAGCCGUUCGGGCGGCUAUAAACAGACCUCAGGCCCGAAGCGUGGCGGCACCUGCCGCCGGUGGUAAAAAAGAUCGGAAGAGCACACGUCU [U7C U10G U11G],1.23
9,GGGUCGCUGUAAUAUAAUCGCGUGGAUAUGGCACGCAAGUUUCUACCGGGCACCGUAAAUGUCCGACUGGAGCCGUUCGGGCGGCUAUAAACAGACCUCAGGCCCGAAGCGUGGCGGCACCUGCCGCCGGUGGUAAAAAAGAUCGGAAGAGCACACGUCU [U7C U11A C12A C13U],1.28
10,GGGUCGCUGUAAGAUAAUCGCGUGGAUAUGGCACGCAAGUUUCUACCGGGCACCGUAAAUGUCCGACUGGAGCCGUUCGGGCGGCUAUAAACAGACCUCAGGCCCGAAGCGUGGCGGCACCUGCCGCCGGUGGUAAAAAAGAUCGGAAGAGCACACGUCU [U7C U11A C12A C13G],1.25
11,GGGUCGCUGUAAAAUAAUCGCGUGGAUAUGGCACGCAAGUUUCUACCGGGCACCGUAAAUGUCCGACUGGAGCCGUUCGGGCGGCUAUAAACAGACCUCAGGCCCGAAGCGUGGCGGCACCUGCCGCCGGUGGUAAAAAAGAUCGGAAGAGCACACGUCU [U7C U11A C12A C13A],1.23
12,GGGUCGCUGGCUGAUAAUCGCGUGGAUAUGGCACGCAAGUUUCUACCGGGCACCGUAAAUGUCCGACUGGAGCCGUUCGGGCGGCUAUAAACAGACCUCAGGCCCGAAGCGUGGCGGCACCUGCCGCCGGUGGUAAAAAAGAUCGGAAGAGCACACGUCU [U7C U10G U11C C12U C13G],1.16
13,GGGUCGCUGGCUUAUAAUCGCGUGGAUAUGGCACGCAAGUUUCUACCGGGCACCGUAAAUGUCCGACUGGAGCCGUUCGGGCGGCUAUAAACAGACCUCAGGCCCGAAGCGUGGCGGCACCUGCCGCCGGUGGUAAAAAAGAUCGGAAGAGCACACGUCU [U7C U10G U11C C12U C13U],1.27
14,GGGUCGCUGGCUAAUAAUCGCGUGGAUAUGGCACGCAAGUUUCUACCGGGCACCGUAAAUGUCCGACUGGAGCCGUUCGGGCGGCUAUAAACAGACCUCAGGCCCGAAGCGUGGCGGCACCUGCCGCCGGUGGUAAAAAAGAUCGGAAGAGCACACGUCU [U7C U10G U11C C12U C13A],1.28
15,GGGUCGCUGGGUUAUAAUCGCGUGGAUAUGGCACGCAAGUUUCUACCGGGCACCGUAAAUGUCCGACUGGAGCCGUUCGGGCGGCUAUAAACAGACCUCAGGCCCGAAGCGUGGCGGCACCUGCCGCCGGUGGUAAAAAAGAUCGGAAGAGCACACGUCU [U7C U10G U11G C12U C13U],1.3
16,GGGUCGCUGGGUGAUAAUCGCGUGGAUAUGGCACGCAAGUUUCUACCGGGCACCGUAAAUGUCCGACUGGAGCCGUUCGGGCGGCUAUAAACAGACCUCAGGCCCGAAGCGUGGCGGCACCUGCCGCCGGUGGUAAAAAAGAUCGGAAGAGCACACGUCU [U7C U10G U11G C12U C13G],1.1
17,GGGUCGCUGGGUAAUAAUCGCGUGGAUAUGGCACGCAAGUUUCUACCGGGCACCGUAAAUGUCCGACUGGAGCCGUUCGGGCGGCUAUAAACAGACCUCAGGCCCGAAGCGUGGCGGCACCUGCCGCCGGUGGUAAAAAAGAUCGGAAGAGCACACGUCU [U7C U10G U11G C12U C13A],1.13
18,GGGUCGCUGUAACAUAAUCGCGUGGAUAUGGCACGCAAGUUUCUACCGGGCACCGUAAAUGUCCGACUGGAGCCGUUCGGGCGGCUAUAAACAGACCUCAGGCCCGAAGCGUGGCGGCACCUGCCGCCGGUGGUAAAAAAGAUCGGAAGAGCACACGUCU [U7C U11A C12A],1.51

row,Variant,aptazyme ON/OFF ratio
1,GGGUCGCUGUAGCAUAAUCGCGUGGAUAUGGCACGCAAGUUUCUACCGGGCACCGUAAAUGUCCGACUGGAGCCGUUCGGGCGGCUAUAAACAGACCUCAGGCCCGAAGCGUGGCGGCACCUGCCGCCGGUGGUAAAAAAGAUCGGAAGAGCACACGUCU [U7C U11A C12G],1.21
2,GGGUCGCUGGGCUAUAAUCGCGUGGAUAUGGCACGCAAGUUUCUACCGGGCACCGUAAAUGUCCGACUGGAGCCGUUCGGGCGGCUAUAAACAGACCUCAGGCCCGAAGCGUGGCGGCACCUGCCGCCGGUGGUAAAAAAGAUCGGAAGAGCACACGUCU [U7C U10G U11G C13U],1.22
3,GGGUCGCUGGGCAAUAAUCGCGUGGAUAUGGCACGCAAGUUUCUACCGGGCACCGUAAAUGUCCGACUGGAGCCGUUCGGGCGGCUAUAAACAGACCUCAGGCCCGAAGCGUGGCGGCACCUGCCGCCGGUGGUAAAAAAGAUCGGAAGAGCACACGUCU [U7C U10G U11G C13A],1.15
4,GGGUCGCUGGGCGAUAAUCGCGUGGAUAUGGCACGCAAGUUUCUACCGGGCACCGUAAAUGUCCGACUGGAGCCGUUCGGGCGGCUAUAAACAGACCUCAGGCCCGAAGCGUGGCGGCACCUGCCGCCGGUGGUAAAAAAGAUCGGAAGAGCACACGUCU [U7C U10G U11G C13G],1.13
5,GGGUCGCUGGCCGAUAAUCGCGUGGAUAUGGCACGCAAGUUUCUACCGGGCACCGUAAAUGUCCGACUGGAGCCGUUCGGGCGGCUAUAAACAGACCUCAGGCCCGAAGCGUGGCGGCACCUGCCGCCGGUGGUAAAAAAGAUCGGAAGAGCACACGUCU [U7C U10G U11C C13G],1.06
6,GGGUCGCUGGCCAAUAAUCGCGUGGAUAUGGCACGCAAGUUUCUACCGGGCACCGUAAAUGUCCGACUGGAGCCGUUCGGGCGGCUAUAAACAGACCUCAGGCCCGAAGCGUGGCGGCACCUGCCGCCGGUGGUAAAAAAGAUCGGAAGAGCACACGUCU [U7C U10G U11C C13A],1.08
7,GGGUCGCUGGCCUAUAAUCGCGUGGAUAUGGCACGCAAGUUUCUACCGGGCACCGUAAAUGUCCGACUGGAGCCGUUCGGGCGGCUAUAAACAGACCUCAGGCCCGAAGCGUGGCGGCACCUGCCGCCGGUGGUAAAAAAGAUCGGAAGAGCACACGUCU [U7C U10G U11C C13U],1.02
8,GGGUCGCUGUAGAAUAAUCGCGUGGAUAUGGCACGCAAGUUUCUACCGGGCACCGUAAAUGUCCGACUGGAGCCGUUCGGGCGGCUAUAAACAGACCUCAGGCCCGAAGCGUGGCGGCACCUGCCGCCGGUGGUAAAAAAGAUCGGAAGAGCACACGUCU [U7C U11A C12G C13A],1.11
9,GGGUCGCUGUAGUAUAAUCGCGUGGAUAUGGCACGCAAGUUUCUACCGGGCACCGUAAAUGUCCGACUGGAGCCGUUCGGGCGGCUAUAAACAGACCUCAGGCCCGAAGCGUGGCGGCACCUGCCGCCGGUGGUAAAAAAGAUCGGAAGAGCACACGUCU [U7C U11A C12G C13U],1.07
10,GGGUCGCUGUAGGAUAAUCGCGUGGAUAUGGCACGCAAGUUUCUACCGGGCACCGUAAAUGUCCGACUGGAGCCGUUCGGGCGGCUAUAAACAGACCUCAGGCCCGAAGCGUGGCGGCACCUGCCGCCGGUGGUAAAAAAGAUCGGAAGAGCACACGUCU [U7C U11A C12G C13G],1.16
11,GGGUCGCUGGGGUAUAAUCGCGUGGAUAUGGCACGCAAGUUUCUACCGGGCACCGUAAAUGUCCGACUGGAGCCGUUCGGGCGGCUAUAAACAGACCUCAGGCCCGAAGCGUGGCGGCACCUGCCGCCGGUGGUAAAAAAGAUCGGAAGAGCACACGUCU [U7C U10G U11G C12G C13U],1.16
12,GGGUCGCUGGGGGAUAAUCGCGUGGAUAUGGCACGCAAGUUUCUACCGGGCACCGUAAAUGUCCGACUGGAGCCGUUCGGGCGGCUAUAAACAGACCUCAGGCCCGAAGCGUGGCGGCACCUGCCGCCGGUGGUAAAAAAGAUCGGAAGAGCACACGUCU [U7C U10G U11G C12G C13G],0.991
13,GGGUCGCUGGGGAAUAAUCGCGUGGAUAUGGCACGCAAGUUUCUACCGGGCACCGUAAAUGUCCGACUGGAGCCGUUCGGGCGGCUAUAAACAGACCUCAGGCCCGAAGCGUGGCGGCACCUGCCGCCGGUGGUAAAAAAGAUCGGAAGAGCACACGUCU [U7C U10G U11G C12G C13A],1.1
14,GGGUCGCUGGCUCAUAAUCGCGUGGAUAUGGCACGCAAGUUUCUACCGGGCACCGUAAAUGUCCGACUGGAGCCGUUCGGGCGGCUAUAAACAGACCUCAGGCCCGAAGCGUGGCGGCACCUGCCGCCGGUGGUAAAAAAGAUCGGAAGAGCACACGUCU [U7C U10G U11C C12U],1.16
15,GGGUCGCUGGCGCAUAAUCGCGUGGAUAUGGCACGCAAGUUUCUACCGGGCACCGUAAAUGUCCGACUGGAGCCGUUCGGGCGGCUAUAAACAGACCUCAGGCCCGAAGCGUGGCGGCACCUGCCGCCGGUGGUAAAAAAGAUCGGAAGAGCACACGUCU [U7C U10G U11C C12G],1.52
16,GGGUCGCUGGGUCAUAAUCGCGUGGAUAUGGCACGCAAGUUUCUACCGGGCACCGUAAAUGUCCGACUGGAGCCGUUCGGGCGGCUAUAAACAGACCUCAGGCCCGAAGCGUGGCGGCACCUGCCGCCGGUGGUAAAAAAGAUCGGAAGAGCACACGUCU [U7C U10G U11G C12U],1.21
17,GGGUCGCUGGGACAUAAUCGCGUGGAUAUGGCACGCAAGUUUCUACCGGGCACCGUAAAUGUCCGACUGGAGCCGUUCGGGCGGCUAUAAACAGACCUCAGGCCCGAAGCGUGGCGGCACCUGCCGCCGGUGGUAAAAAAGAUCGGAAGAGCACACGUCU [U7C U10G U11G C12A],1.2
18,GGGUCGCUGGGGCAUAAUCGCGUGGAUAUGGCACGCAAGUUUCUACCGGGCACCGUAAAUGUCCGACUGGAGCCGUUCGGGCGGCUAUAAACAGACCUCAGGCCCGAAGCGUGGCGGCACCUGCCGCCGGUGGUAAAAAAGAUCGGAAGAGCACACGUCU [U7C U10G U11G C12G],1.22
